These results are taken from US7517661B2, “Methods of screening for ligands for FPRL2” (Takeda Pharmaceutical Company Limited, priority 2003, dated 2009).

Assay [1] concerns the target T1, human FPRL2 (Homo sapiens, UniProt P25089).
T1 construct: expressed in transfected cells; host or cells: CHO cells
T1 sequence (P25089 1-353 G94A/S211T/D338H): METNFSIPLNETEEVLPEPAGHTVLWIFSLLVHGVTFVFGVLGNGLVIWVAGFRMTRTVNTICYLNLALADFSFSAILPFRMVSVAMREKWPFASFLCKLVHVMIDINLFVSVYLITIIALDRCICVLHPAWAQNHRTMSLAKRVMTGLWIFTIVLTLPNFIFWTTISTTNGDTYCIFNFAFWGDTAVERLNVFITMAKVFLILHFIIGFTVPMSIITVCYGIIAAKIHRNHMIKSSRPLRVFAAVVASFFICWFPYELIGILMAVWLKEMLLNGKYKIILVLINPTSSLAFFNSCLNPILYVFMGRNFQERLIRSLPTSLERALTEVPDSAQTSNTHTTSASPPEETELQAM
As to the kind of experiment: Intracellular cAMP production inhibition assay (AlphaScreen) in human FPRL2-expressing CHO cells. It is filed as cell-based. The note with it: human FPRL2-expressing CHO cells; reactivity also examined for human FPRL1, human FPR1 and mock CHO (FIGS. 1-4). The method, then:
(§1) Orphan G protein-coupled receptor protein-expressing CHO cells were inoculated in one flask of 150 cm^2 at 1×10^7 cells, followed by incubation at 37° C. in a CO2 incubator. Subsequently to the incubation, the cells were detached using 0.5 mM EDTA/PBS, and washed with PBS. The cells were then suspended at a density of 1×10^7 cells/ml in Buffer 1 (HBSS+0.1% BSA, 25 mM HEPES, pH 7.3, 0.5 mM IBMX). This cell suspension, 440 μl, was mixed with 22 μl of anti-cAMP acceptor beads of AlphaScreen cAMP Assay Kit (Perkin Elmer) and 638 μl of Buffer 1. The resulting mixture was dispensed on a white 96-well plate (Costar) by 10 μl each. Next, 10 μl each of a Buffer 1 dilution or solution of the compound to be screened was added to each well. In this case, the cell suspension was not given in one row of the plate but only a mixture of 9 μl of anti-cAMP acceptor beads and 441 μl of Buffer 1 was charged and instead of the compound, a serial dilution of cAMP was added thereto. This was made standard. The plate in which a mixture of the cell suspension and the compound was charged was kept shaken at room temperature for 30 minutes. Thirty minutes after, a mixture of 20 μl of Biotinyl camp and 82 μl of Streptavin donor beads of AlphaScreen cAMP Assay kit with 40 ml of Buffer 2 (HBSS+0.1% BSA, 25 mM HEPES, pH 7.3, 1.5% Tween 20) was added to all wells of the plate by 30 μl each. The plate was kept shaken at room temperature for 3 hours and the fluorescence intensity was measured by Fusion a (Perkin Elmer). Using the cAMP standard charged in the plate, the cAMP level in each well was calculated. In addition to human FPRL2-expressing CHO cells, three orphan G protein-coupled receptor protein-expressed CHO cells were added and the resulting compound library was provided for screening using the assay system described above.
On the technique in general: Changes in cAMP serve as a functional read-out for many G protein-coupled receptors.

Assay [2] deals with T2, human FPRL2 (Homo sapiens, UniProt P25089, D338H/G94A/S211T).
T2 construct: expressed in transfected cells; host or cells: CHO cells
T2 sequence (P25089 1-353 G94A/S211T/D338H): T1 sequence (P25089 1-353 G94A/S211T/D338H)
The description is as above. The assay is classed as cell-based. The note with it: summary statement in disclosure of invention. The method, then: as §1

A further assay concerns the target T3, FPRL2 (Homo sapiens, UniProt P25089).
T3 sequence (P25089 1-353): T1 sequence (P25089 1-353 G94A/S211T/D338H) with A94G, T211S, H338D
The conditions noted are these: J Biol. Chem., Jun. 15, 2001; 276 (24): 21585-93; cited from earlier work.

Residue numbers refer to the chain shown, from its start. Where no end group is shown, it is not given here.

With “Ala-Arg-Pro-Gly-Tyr-Leu-Ala-Phe-Pro-Arg-Met-NH2 (ARPGYLAFPRM-NH2; listed as Aplysia sp.) [SCPA]”, the “intracellular cAMP production inhibition activity” value with human FPRL2 [1] is on record as “exhibited the intracellular cAMP production inhibition activity specific to human FPRL2”. The “ligand activity on FPRL2” value in the assay with human FPRL2 [2] is reported as “exhibit a ligand activity on FPRL2”.

Take “Gly-Asn-His-Trp-Ala-Val-Gly-His-Leu-Met-NH2 (GNHWAVGHLM-NH2; listed as Homo sapiens) [hNeuromedin C]”: the “intracellular cAMP production inhibition activity” value with human FPRL2 [1] is recorded as “exhibited the intracellular cAMP production inhibition activity specific to human FPRL2”. Moreover, the “ligand activity on FPRL2” value in the assay with human FPRL2 [2] is on record as “exhibit a ligand activity on FPRL2”.

For Trp-Lys-Tyr-Met-Val-Met-NH2, the “agonist for FPRL2 (reported)” value in the assay with FPRL2 is “agonist for FPRL2”.

“Met-Pro-His-Ser-Phe-Ala-Asn-Leu-Pro-Leu-Arg-Phe-NH2 (MPHSFANLPLRF-NH2; listed as Sus scrofa) [hRFRP-1-12]”: the “intracellular cAMP production inhibition activity” value with human FPRL2 [1] is reported as “exhibited the intracellular cAMP production inhibition activity specific to human FPRL2”. Further, in the assay with human FPRL2 [2], the “ligand activity on FPRL2” value is given as “exhibit a ligand activity on FPRL2”.

“His-Trp-Ala-Trp-Phe-Lys-NH2 (HWAWFK-NH2; not fully specified (residues 2, 5); printed as His-Trp-Ala-Trp-Phe-Lys-NH2) [GHRP-6]”: in the assay with human FPRL2 [1], the “intracellular cAMP production inhibition activity” value is recorded as “exhibited the intracellular cAMP production inhibition activity specific to human FPRL2”. Besides, the “ligand activity on FPRL2” value with human FPRL2 [2] is “exhibit a ligand activity on FPRL2”.
